{"source": "patent EP3440111B1", "about": "(Fondazione Luigi Maria Monti, dated 2023)", "key": {"[1]": {"biological_target": "T1, sVEGFR-1 (soluble VEGFR-1) (Homo sapiens (Human), UniProt P17948 27-656)", "T1 construct": "Bought from RELIATech; also called soluble form of VEGFR-1", "T1 sequence (P17948 other isoform, or with tags, fused parts or gaps limits assumed)": "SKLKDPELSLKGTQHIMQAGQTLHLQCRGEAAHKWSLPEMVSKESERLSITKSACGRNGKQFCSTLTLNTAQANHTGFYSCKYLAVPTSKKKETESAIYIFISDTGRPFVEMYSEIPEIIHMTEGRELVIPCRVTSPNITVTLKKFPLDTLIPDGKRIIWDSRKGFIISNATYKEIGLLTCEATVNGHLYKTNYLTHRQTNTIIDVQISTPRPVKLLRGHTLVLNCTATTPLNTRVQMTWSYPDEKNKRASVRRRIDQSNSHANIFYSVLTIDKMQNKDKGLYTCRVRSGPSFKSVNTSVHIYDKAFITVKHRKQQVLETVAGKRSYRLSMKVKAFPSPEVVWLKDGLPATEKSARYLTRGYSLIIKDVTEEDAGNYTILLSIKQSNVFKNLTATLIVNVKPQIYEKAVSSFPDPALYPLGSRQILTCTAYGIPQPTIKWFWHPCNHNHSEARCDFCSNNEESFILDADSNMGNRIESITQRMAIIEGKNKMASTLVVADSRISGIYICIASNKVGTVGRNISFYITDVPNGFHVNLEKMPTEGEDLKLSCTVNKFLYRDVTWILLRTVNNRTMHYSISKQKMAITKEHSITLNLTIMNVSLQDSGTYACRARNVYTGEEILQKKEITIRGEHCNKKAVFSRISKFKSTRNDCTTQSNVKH", "assay": "ELISA on plates coated with a soluble form of VEGFR-1"}, "[2]": {"biological_target": "T2, chimeric protein rhVEGFR-1/Fc (human, UniProt P17948 27-758)", "T2 construct": "extracellular domain;domain: Fc region; Bought from R&D Systems; also called sVEGFR-1/Fc; not shown: Fc region of human immunoglobulins", "T2 sequence (P17948 27-758, stated change not applied)": "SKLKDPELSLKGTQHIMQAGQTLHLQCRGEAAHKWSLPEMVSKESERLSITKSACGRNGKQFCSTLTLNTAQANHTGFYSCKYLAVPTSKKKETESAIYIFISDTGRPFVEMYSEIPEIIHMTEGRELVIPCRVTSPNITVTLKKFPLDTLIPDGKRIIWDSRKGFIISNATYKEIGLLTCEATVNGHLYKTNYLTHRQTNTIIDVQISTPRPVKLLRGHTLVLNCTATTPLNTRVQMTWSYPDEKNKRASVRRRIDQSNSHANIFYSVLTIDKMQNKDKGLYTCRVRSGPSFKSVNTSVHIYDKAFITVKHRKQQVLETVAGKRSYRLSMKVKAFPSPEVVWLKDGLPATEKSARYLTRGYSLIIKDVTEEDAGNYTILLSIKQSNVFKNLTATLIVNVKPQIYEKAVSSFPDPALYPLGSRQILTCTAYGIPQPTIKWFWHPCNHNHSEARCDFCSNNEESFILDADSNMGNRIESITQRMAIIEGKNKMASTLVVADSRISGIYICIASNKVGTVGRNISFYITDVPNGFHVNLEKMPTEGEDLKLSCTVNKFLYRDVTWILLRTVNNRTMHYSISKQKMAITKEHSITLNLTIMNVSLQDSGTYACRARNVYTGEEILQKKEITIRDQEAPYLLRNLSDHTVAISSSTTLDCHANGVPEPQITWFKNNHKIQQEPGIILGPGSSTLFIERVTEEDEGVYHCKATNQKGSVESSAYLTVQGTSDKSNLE", "assay": "Western blotting"}}, "data": [{"binder": "monoclonal antibody D16F7 (antibody, V domains shown, Mouse IgG1 from a hybridoma (BALB/c mice immunized with peptide A4 as a MAP); also called D16F7 mAb; mAbD16F7) VH: QVQLQQPGSELVRPGASVKLSCKASGYIFTNYWMHWVKQRPGQGLEWIGEIYPRNGNTNYDEKFKGKATLTIDTSSSTAYMQLSSLTSEDSAVYYCATYLGDYWGQGTTLTVSS VL: DVLMTQTPLSLPVSLGDQASISCRSSQSIVHSNGNTYLEWFLQKPGQSPKLLIYKVSNRFSGIPDRFSGSGSGTDFTLKISRVEAEDLGVYFCFQGSHVPYTFGGGTKLEIK", "values": [{"measurement": "binding result", "setting": "[1]", "value": "binds"}, {"measurement": "binding result", "setting": "[2]", "value": "binds"}]}]}
